Patent US20040072750A1, “Compounds and methods for the modulation of CD154” (priority 2001, published 2004)
Bridge positions count the residues as written; N and C are the ends. Square brackets hold non-standard residues; d marks the D form. Peptide text beside a SMILES is read from it. hArg = N=C(N)NCCCC[C@H](N)C(=O)O; Mpa = O=C(O)CCS

What was measured:
washed platelets [1] = experiment: Western blot analysis of immunoprecipitated platelet CD154 (hydrolysis to 18 kDa sCD154); assay type: cell-based, human
From the text: As previously described, CD154 exists as a 33/31 kDa doublet in unstimulated platelets.

platelets in whole blood = experiment: Perfusion chamber: thrombus formation of whole blood on protein-coated surface under shear; assay type: cell-based, human
Description: The effect of CD154 on the aggregation of platelets under conditions of high shear stress were evaluated. Recombinant CD154 (rCD154 or rCD40L) was compared to fibrinogen (Fg) in its ability to form thrombi as well as in combination with Fg. Controls also included CD154 in which the KGD eptifibatide-recognition sequence was mutated to KGE (CD154(KGE) or CD40L(KGE)). Briefly, a silicone gasket with a flow path height of 127 μm was placed between a flat perfusion chamber (Glycotech, Rockville, Md.) and a protein-coated petri dish as described (Andre, P. et al., Nature Medicine, 8:247-252 (2002)). Petri dishes were coated with rCD40L, Fibrinogen (Fg), rCD40L+Fg, mutated CD40L (CD40L(KGE)), CD40L(KGE)+Fg. In one experiment, the glycoprotein IIb/IIIa antagonist eptifibatide (2 μM) was incubated with whole blood before perfusion over the rCD40L-coated surface. When Fg was coated with either rCD40L or CD40L(KGE), each molecule was deposited at 25 μg/cm^2. Coating of the proteins was performed using the spray method in which 25 μl of a 1 mg/ml protein solution is coated onto the plastic with a retouching air brush resulting in a concentration of 25 μg/cm^2 (Houdijk, WP et al., J. Clin. Invest., 75:531-540 (1985)). Human peripheral blood was collected on PPACK (40 μmol/L final concentration) and perfused for 4 minutes over the protein-coated surface. Shear rates of 1500-1600/s, 500-600/s and 100-200/s, were generated with flow rates of ˜0.6, 0.25 and 0.075 ml/min, respectively. Measurements of thrombotic deposits were performed using the Simple PCI software image analysis program (Technical Instrument, Burlingame, Calif.).

washed platelets [2] = experiment: Fibrinogen binding to washed platelets and microparticle generation (flow cytometry); assay type: cell-based, human
Description: Venous blood was collected from normal donors into ACD buffer (85 mM Sodium Citrate, […] and 71 mM Citric acid) containing 0.05 μg/ml prostaglandin 12(PGI2). Blood was later centrifuged at 160×g for 20 minutes to collect platelet rich plasma (PRP). PRP was centrifuged at 1100×g for 10 minutes to sediment platelets. Platelets were washed twice with CGS buffer (13 mM trisodium citrate, 120 mM sodium chloride and 30 mM dextrose pH 7.0). The first wash had 0.03 μg/ml PGI2. Washed platelets were finally suspended in Tyrodes-Hepes buffer (12 mM sodium bi-carbonate, 138 mM sodium chloride, 5.5 mM glucose, 2.9 mM potassium chloride, 10 mM Hepes, 1 mM calcium chloride and 1 mM magnesium chloride, pH 7.4).
Washed platelets (1×10^7/ml) were incubated for 60 minutes at 37° C. with 2 μM soluble CD154 (sCD154) or mutant sCD154 (D117E mutation in the KGD sequence) in the presence or absence of eptifibatide or anti-CD40 antibody. All incubations had 100 nM Alexa-Fibrinogen (Molecular probes, Eugene, Oreg.). Samples were diluted 10 fold with stain buffer (BD Pharmingen, Los Angeles, Calif.) after incubation and analyzed by flow cytometry (FACSort, BD, San Jose, Calif.).

[3] = system: Human umbilical vein endothelial cells (HUVECS); experiment: Inflammatory response of endothelial cells to rsCD154 (MCP-1 ELISA, tissue factor clotting assay, ICAM-1/E-Selectin FACS); assay type: cell-based
Description: Inflammation in the present invention study was measured by the upregulation of tissue factor on cultured endothelial cells. Endothelial cells were the cells selected for study as this is the most abundant cell exposed to blood and is known to express […], the ligand for CD154 (Yellin, MJ, J. Exp Med, 182: 1857(1995)).
Human umbilical vein endothelial cells (HUVECS) purchased from Clonetics Inc. were cultured with M199 containing 20% FBS, 50 μg/ml endothelial mitogen (Biomedical technologies Inc.) 2 mM glutamine, 1 mM Sodium Pyruvate, 1× Nonessential amino acids, 100 U/ml of penicillin/streptomycin and 100 μg/ml heparin. HUVECS (passage 3-5) grown in 6 well dishes or 96 well tissue culture plates coated with 0.75% bovine skin gelatin (Sigma chemicals) were incubated without and with different concentrations (100 ng-10 μg/ml) of rsCD 154 in the presence of TRAP-1 (monoclonal antibody against hCD154, BD Pharmingen) or MOPC-21 (mouse IgG, Sigma) for 4 hrs at 37° C. in Tyrode's-Hepes buffer (12 mM NaHCO3, 138 mM NaCl, 5.5 mM glucose, 2.9 mM KCl, 10 mM Hepes, 1 mM CaCl2, 1 mM MgCl2, pH 7.4). […]
The supernatants were collected and the concentrations of MCP-1 determined by ELISA. Expression of tissue factor was determined by clotting assays performed with the HUVECS in the 96 well plates. […] The expression of ICAM-1 and E-Selectin was determined by FACS analysis (FACSort, Beckton Dickinson) following release of the HUVECS from the dishes. HUVECS, when exposed to 2 μg/ml rsCD154, secreted 3 fold more MCP-1 after 4 hrs and this increase was blocked by anti-CD154 antibody, but not by an isotype matched control antibody. As measured by clotting assay there was 50% reduction in clotting time, which was reversed in the presence of TRAP-1.

## N=C(N)NCCCC[C@@H]1NC(=O)CCSSC[C@@H](C(N)=O)NC(=O)[C@@H]2CCCN2C(=O)[C@H](Cc2c[nH]c3ccccc23)NC(=O)[C@H](CC(=O)O)NC(=O)CNC1=O [eptifibatide] ([Mpa][hArg]GDWPC-NH2; disulfide 1-7)
Washed platelets [1]; 5 μmol/L TRAP plus 2.5 μmol/L eptifibatide, 30 minutes
  hydrolysis of CD154 and release of sCD154 from stimulated platelets: inhibited
Washed platelets [1]; TRAP aggregation, 5 μM eptifibatide
  CD154 hydrolysis and appearance of the soluble 18 kDa fragment: prevented
Platelets in whole blood; eptifibatide 2 μM incubated with whole blood
  Binding of platelets to the rCD40L: inhibited
Washed platelets [2]; 2 μM sCD154, eptifibatide 2.5 μM
  effect on sCD154-induced fibrinogen binding and microparticle generation: inhibited

B1: rsCD154: bacterially expressed recombinant human soluble CD154 (108 a.a-261 a.a.), 18-kDa protein (protein)
chain: ENSFEMQKGDQNPQIAAHVISEASSKTTSVLQWAEKGYYTMSNNLVTLENGKQLTVKRQGLYYIYAQVTFCSNREASSQAPFIASLCLKSPGRFERILLRAANTHSSAKPCGQQSIHLGGVFELQPGASVFVNVTDPSQVSHGTGFTSFGLLKL
[3]; 2 μg/ml of rsCD154, FACS
  increased expression of ICAM-1 and E-Selectin: 2 fold
[3]; 2 μg/ml rsCD154, 4 hrs
  MCP-1 secretion by HUVECS: 3 fold
[3]; HUVECS exposed to rsCD154
  reduction in clotting time (tissue factor clotting assay): 50%
Platelets in whole blood; shear rate of 1500-1600/s, 25 μg/cm^2 coating
  aggregation process (mean thrombus area) on coated surface versus Fg: significantly enhances
Washed platelets [2]; 2 μM protein, 60 minutes at 37° C., FIG. 10
  fibrinogen binding to platelets and generation of microparticles: induced
